This is an account of results in the RNAGym collection of RNA variant scans (doi:10.7554/elife.90254).

The chains are these.
B1: OR4K15 (parent)
chain: GUUAACGGUCAUAGGCCAUGGAAACUAGGAGCACCAUUUCGCUGCCAGUGAAGAAAUGAACAAAGAAAAUCUGGGCCAGGCAGGCAUCAAAAGAAAUAGUCUUGCGCUCAACCAGAAAGUCUGUAAUCAUUUUAAGGGUA

Variants of B1 are the subject of this data set. Nature of the data set: self-cleavage, relative activity (ratio to wild type); higher = more cleavage; in vitro, sequencing; the parent is a self-cleaving ribozyme.
For the variant G58U U100C, the self-cleavage amounted to 2.08.
On to A47G U49C, for which the self-cleavage is 0.98.
To A22G G74A belongs 0.24; to A27G A55G, 1.57; to A55G A114C, 0.05.
On to G80U U87C, for which the self-cleavage amounted to 0.22.
A54U A60G: the self-cleavage was found to be 0.97.
In the case of G44U A135G it was 1.6.
To A11G A126G belongs 0.39.
Consider U9C U108A, for which the self-cleavage came to 0.04.
In the case of A22G A90U it was 2.02.
Take U3C U9A: the self-cleavage came out at 0.85.
On to U38C U133C, for which the self-cleavage was determined as 0.93.
To U102C U120C belongs 2.34; to U19C G28A, 1.41; to U9C U43A, 1.24.
In the case of U9A G106C it was 0.05.
A22G A78G: the self-cleavage was 0.27.
To A52G C88U belongs 1.39; to U3C A63U, 1.02.
As to A63G A116U, the self-cleavage was determined as 0.57.
To A54U A64U belongs 1.98.
In the case of A67U U130A it was 1.56; in that of A68U A78G, 0.27; in that of U12C A118G, 0.61.
For A36G A60U, the self-cleavage turned out to be 0.82.
Take A22G A67G: the self-cleavage was 1.16.
In the case of U2C G74A it was 0.18; in that of U43A A55U, 2.41; in that of C35U A117G, 1.25.
Take A110G A140U: the self-cleavage turned out to be 0.18.
To U43C U108G belongs 0.02; to A60G U87C, 0.93; to A52G A86G, 1.41.
On to C109A A114G, for which the self-cleavage came out at 0.11.
For C40U A62C, the self-cleavage worked out at 1.11.
To A22U U39A belongs 2.33; to A51U U122C, 1.26.
In the case of A64C A94G, the self-cleavage was found to be 2.25.
Take A118G C128U: the self-cleavage stood at 0.61.
In the case of C34U U120G it was 0.94; in that of U49A A114U, 0.04.
To A94G U97C belongs 1.12; to U49C U133C, 1.76; to A63G C107G, 0.01.
In the case of A22U A92G it was 1.41; in that of A90U A129G, 1.51; in that of U97C U130A, 0.78.
A36U U108C: the self-cleavage stood at 0.02.
For U72G A135C, the self-cleavage was determined as 0.33.
In the case of A90U U127C it was 1.37; in that of U43A U72A, 0.2; in that of U2C U130C, 1.06.
Turning to A18U A68U, the self-cleavage was 2.28.
To A52G A56C belongs 0.99; to A78G A95G, 0.26.
To C71A U97C belongs 0.18; to U3C A86C, 0.37.
In the case of A24C U49C it was 1.53; in that of A60G U72A, 0.17.
As for G93A A126G, the self-cleavage was 2.16.
To A30G A114U belongs 0.05; to U26A A110G, 0.22.
U43C A68U: the self-cleavage is 1.74.
With G8U U108A, the self-cleavage is 0.
In the case of A68G A78U it was 0.13.
Regarding U108A U124C, the self-cleavage was determined as 0.01.
In the case of C34A A55G it was 1.25; in that of A13G A78G, 0.52; in that of A23G U39A, 0.98.
Consider C121U U130C, for which the self-cleavage turned out to be 0.92.
With A5G U108C, the self-cleavage amounted to 0.06.
With A23G A140U, the self-cleavage worked out at 1.15.
In the case of A33G A63G it was 0.45.
Consider U26A A54C, for which the self-cleavage is 1.61.
Regarding A18G C71U, the self-cleavage was determined as 0.22.
On to A13U U132C, for which the self-cleavage is 2.18.
To U127C U132G belongs 1.62; to A68G A117G, 2.
In the case of U9C G65A it was 2.38.
With U19C A68G, the self-cleavage was 1.24.
In the case of G84A U127C it was 2.46; in that of U103A A111G, 0.01; in that of A33G G83U, 0.24.
Regarding G41U A91G, the self-cleavage worked out at 1.31.
In the case of A24C A66G it was 1.16; in that of G31A U108C, 0.03; in that of U43G A54U, 1.97.
As for A69G U70C, the self-cleavage is 0.25.
In the case of A114U A116U, the self-cleavage is 0.03.
In the case of A96G A125G it was 0.69; in that of U122A A140G, 1.17; in that of U39A A140G, 1.16.
For the variant U26A U37C, the self-cleavage is 0.43.
In the case of U72C A135U it was 0.28; in that of A78G G123U, 0.25.
To A47U C77A belongs 0.69; to U39C U100C, 2.44.
In the case of U37C U38C it was 1.51; in that of A5C A110U, 0.95.
On to U37C C42G, for which the self-cleavage amounted to 1.69.
With G21A A33G, the self-cleavage came out at 0.33.
On to U103C U139A, for which the self-cleavage was determined as 1.06.
For the variant A54U U130C, the self-cleavage was 1.62.
To U2C A5G belongs 0.24; to A62C A86G, 1.15; to G73A, 0.07.
Turning to A62C A92G, the self-cleavage amounted to 1.58.
For the variant U9C A67C, the self-cleavage turned out to be 1.31.
For the variant U9A C32U, the self-cleavage is 1.2.
Consider A98G U122C, for which the self-cleavage came out at 0.34.
In the case of A18C U108C it was 0.01; in that of U49A A89C, 0.85; in that of A63G A86U, 2.04.
In the case of G7A U133A, the self-cleavage amounted to 0.79.
Take A18G A23U: the self-cleavage is 1.88.
Turning to A60C A69G, the self-cleavage stood at 2.
Consider U38C U124A, for which the self-cleavage amounted to 0.81.
To U130C A135G belongs 1.89; to U9A A23G, 0.95.
In the case of U131C G136A it was 0.88; in that of U3C A96U, 1.02.
In the case of A78C U102A it was 0.02; in that of A98G A111G, 0.01.
On to A36G U103C, for which the self-cleavage worked out at 0.43.
Consider U49A A82U, for which the self-cleavage amounted to 0.18.
For the variant A59G U100A, the self-cleavage amounted to 0.63.
As for U2C A54U, the self-cleavage came out at 1.61.
To U72C U100C belongs 0.34; to A56C A78U, 0.35; to A51U A68C, 1.91.
To U9C U87A belongs 1.98; to U2C G137U, 1.25.
In the case of A24U C71A it was 0.49; in that of U9A U70C, 1.07; in that of G20U U100C, 2.46.
On to U9C G74U, for which the self-cleavage turned out to be 0.15.
To G31U A68G belongs 1.26; to U87C U127A, 2.12.
Turning to C6U A78G, the self-cleavage is 0.4.
In the case of U108C A116U it was 0; in that of G50C A56G, 1.42; in that of G99A U120C, 0.26.
Consider A22G C42U, for which the self-cleavage turned out to be 1.45.
In the case of U3A A111G, the self-cleavage came to 0.08.
In the case of A55G G65A it was 1.07; in that of U70C A118U, 0.18; in that of A56G U120A, 1.19.
Turning to A92U U139C, the self-cleavage is 1.43.
To A89U A118U belongs 0.73.
In the case of A66U A86C it was 1.36; in that of A30G A56C, 0.43; in that of U3C U57C, 1.28.
In the case of G80A C81A it was 0.11; in that of U12C A30U, 1.21; in that of A33G U43A, 1.32.
Regarding A68G G137A, the self-cleavage was 1.06.
For the variant A47C U131C, the self-cleavage came out at 0.89.
To A55U G137A belongs 1.23; to A91G C112U, 0.01; to C121U U131C, 2.02.
In the case of A64U A94U it was 1.63.
As for U38A G50A, the self-cleavage worked out at 1.07.
As to A24G A63G, the self-cleavage was determined as 1.17.
In the case of U49C U120G it was 1.33; in that of A33C A59G, 1.39; in that of U57C A110G, 0.1.
